Experimental data from patent publication US20080220446.

Tests used:
[1] = molecular target: human modified gelatin (Gelofusine)
[2] = molecular target: T1, alkyl-β2gpi (reduced and alkylated β2-glycoprotein I), P02749
T1 chain: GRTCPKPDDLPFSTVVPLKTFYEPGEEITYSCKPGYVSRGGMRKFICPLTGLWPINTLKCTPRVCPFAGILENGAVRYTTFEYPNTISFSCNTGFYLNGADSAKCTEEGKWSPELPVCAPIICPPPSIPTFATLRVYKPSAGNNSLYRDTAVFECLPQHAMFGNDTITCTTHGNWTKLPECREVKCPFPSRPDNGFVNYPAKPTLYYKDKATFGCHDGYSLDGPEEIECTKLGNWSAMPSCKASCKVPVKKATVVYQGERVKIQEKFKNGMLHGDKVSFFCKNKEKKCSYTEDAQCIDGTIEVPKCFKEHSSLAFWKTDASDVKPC

[3] = molecular target: amyloid γ-globulins (denatured human γ-globulins)
[4] = molecular target: endostatin (EntreMed, Inc.), P39060
Chain of endostatin (EntreMed, Inc.), P39060 (P39060 whole entry, looked up): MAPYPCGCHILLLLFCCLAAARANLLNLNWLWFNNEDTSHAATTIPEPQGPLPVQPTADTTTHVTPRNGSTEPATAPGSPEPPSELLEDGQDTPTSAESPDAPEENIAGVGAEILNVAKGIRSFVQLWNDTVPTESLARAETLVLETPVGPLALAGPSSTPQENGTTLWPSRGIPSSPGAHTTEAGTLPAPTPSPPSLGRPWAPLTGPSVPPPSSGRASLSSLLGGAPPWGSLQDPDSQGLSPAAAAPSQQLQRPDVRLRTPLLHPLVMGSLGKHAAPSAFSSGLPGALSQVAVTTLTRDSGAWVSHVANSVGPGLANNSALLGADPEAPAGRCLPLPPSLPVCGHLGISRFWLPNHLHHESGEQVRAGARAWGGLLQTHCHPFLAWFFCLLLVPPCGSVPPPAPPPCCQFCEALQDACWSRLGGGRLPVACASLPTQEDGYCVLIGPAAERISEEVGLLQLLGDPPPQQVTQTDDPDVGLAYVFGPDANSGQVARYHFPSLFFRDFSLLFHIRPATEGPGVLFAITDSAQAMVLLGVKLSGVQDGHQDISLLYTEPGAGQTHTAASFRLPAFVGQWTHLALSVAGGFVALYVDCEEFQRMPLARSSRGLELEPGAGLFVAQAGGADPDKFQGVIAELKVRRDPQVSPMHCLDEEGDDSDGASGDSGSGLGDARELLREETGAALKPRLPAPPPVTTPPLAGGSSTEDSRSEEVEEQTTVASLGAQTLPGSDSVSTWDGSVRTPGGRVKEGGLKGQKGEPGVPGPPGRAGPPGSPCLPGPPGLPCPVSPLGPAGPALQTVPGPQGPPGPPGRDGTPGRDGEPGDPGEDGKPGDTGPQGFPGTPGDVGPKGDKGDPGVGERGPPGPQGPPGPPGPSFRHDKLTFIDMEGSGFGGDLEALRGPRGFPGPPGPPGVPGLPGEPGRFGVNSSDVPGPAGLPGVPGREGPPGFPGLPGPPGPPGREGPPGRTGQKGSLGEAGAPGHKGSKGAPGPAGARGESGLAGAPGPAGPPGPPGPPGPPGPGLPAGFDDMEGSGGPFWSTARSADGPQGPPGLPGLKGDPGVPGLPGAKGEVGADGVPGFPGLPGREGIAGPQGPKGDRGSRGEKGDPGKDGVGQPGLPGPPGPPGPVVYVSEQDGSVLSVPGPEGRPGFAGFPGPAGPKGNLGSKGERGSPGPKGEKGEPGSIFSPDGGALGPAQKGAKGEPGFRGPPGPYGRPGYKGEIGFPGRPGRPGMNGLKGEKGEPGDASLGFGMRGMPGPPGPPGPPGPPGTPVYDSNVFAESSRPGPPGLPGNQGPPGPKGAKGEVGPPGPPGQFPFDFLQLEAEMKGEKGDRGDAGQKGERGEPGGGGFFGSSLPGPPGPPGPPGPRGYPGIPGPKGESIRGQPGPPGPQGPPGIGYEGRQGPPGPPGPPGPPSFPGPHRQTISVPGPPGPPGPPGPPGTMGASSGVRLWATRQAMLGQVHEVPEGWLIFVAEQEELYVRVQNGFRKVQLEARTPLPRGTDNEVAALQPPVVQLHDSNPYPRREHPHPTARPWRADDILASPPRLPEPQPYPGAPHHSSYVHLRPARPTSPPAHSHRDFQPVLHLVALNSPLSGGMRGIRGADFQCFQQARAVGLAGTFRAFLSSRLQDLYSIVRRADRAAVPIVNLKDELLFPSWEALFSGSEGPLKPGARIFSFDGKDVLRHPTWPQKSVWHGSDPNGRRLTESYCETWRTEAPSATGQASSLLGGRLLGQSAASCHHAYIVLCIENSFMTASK

[5] = molecular target: heat/acid-denatured human glucagon, P01275
Chain of heat/acid-denatured human glucagon, P01275 (P01275 53-81): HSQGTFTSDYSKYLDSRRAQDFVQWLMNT

[6] = molecular target: human coagulation factor VIII (FVIII) (Aafact), P00451
Chain of human coagulation factor VIII (FVIII) (Aafact), P00451 (P00451 whole entry, looked up): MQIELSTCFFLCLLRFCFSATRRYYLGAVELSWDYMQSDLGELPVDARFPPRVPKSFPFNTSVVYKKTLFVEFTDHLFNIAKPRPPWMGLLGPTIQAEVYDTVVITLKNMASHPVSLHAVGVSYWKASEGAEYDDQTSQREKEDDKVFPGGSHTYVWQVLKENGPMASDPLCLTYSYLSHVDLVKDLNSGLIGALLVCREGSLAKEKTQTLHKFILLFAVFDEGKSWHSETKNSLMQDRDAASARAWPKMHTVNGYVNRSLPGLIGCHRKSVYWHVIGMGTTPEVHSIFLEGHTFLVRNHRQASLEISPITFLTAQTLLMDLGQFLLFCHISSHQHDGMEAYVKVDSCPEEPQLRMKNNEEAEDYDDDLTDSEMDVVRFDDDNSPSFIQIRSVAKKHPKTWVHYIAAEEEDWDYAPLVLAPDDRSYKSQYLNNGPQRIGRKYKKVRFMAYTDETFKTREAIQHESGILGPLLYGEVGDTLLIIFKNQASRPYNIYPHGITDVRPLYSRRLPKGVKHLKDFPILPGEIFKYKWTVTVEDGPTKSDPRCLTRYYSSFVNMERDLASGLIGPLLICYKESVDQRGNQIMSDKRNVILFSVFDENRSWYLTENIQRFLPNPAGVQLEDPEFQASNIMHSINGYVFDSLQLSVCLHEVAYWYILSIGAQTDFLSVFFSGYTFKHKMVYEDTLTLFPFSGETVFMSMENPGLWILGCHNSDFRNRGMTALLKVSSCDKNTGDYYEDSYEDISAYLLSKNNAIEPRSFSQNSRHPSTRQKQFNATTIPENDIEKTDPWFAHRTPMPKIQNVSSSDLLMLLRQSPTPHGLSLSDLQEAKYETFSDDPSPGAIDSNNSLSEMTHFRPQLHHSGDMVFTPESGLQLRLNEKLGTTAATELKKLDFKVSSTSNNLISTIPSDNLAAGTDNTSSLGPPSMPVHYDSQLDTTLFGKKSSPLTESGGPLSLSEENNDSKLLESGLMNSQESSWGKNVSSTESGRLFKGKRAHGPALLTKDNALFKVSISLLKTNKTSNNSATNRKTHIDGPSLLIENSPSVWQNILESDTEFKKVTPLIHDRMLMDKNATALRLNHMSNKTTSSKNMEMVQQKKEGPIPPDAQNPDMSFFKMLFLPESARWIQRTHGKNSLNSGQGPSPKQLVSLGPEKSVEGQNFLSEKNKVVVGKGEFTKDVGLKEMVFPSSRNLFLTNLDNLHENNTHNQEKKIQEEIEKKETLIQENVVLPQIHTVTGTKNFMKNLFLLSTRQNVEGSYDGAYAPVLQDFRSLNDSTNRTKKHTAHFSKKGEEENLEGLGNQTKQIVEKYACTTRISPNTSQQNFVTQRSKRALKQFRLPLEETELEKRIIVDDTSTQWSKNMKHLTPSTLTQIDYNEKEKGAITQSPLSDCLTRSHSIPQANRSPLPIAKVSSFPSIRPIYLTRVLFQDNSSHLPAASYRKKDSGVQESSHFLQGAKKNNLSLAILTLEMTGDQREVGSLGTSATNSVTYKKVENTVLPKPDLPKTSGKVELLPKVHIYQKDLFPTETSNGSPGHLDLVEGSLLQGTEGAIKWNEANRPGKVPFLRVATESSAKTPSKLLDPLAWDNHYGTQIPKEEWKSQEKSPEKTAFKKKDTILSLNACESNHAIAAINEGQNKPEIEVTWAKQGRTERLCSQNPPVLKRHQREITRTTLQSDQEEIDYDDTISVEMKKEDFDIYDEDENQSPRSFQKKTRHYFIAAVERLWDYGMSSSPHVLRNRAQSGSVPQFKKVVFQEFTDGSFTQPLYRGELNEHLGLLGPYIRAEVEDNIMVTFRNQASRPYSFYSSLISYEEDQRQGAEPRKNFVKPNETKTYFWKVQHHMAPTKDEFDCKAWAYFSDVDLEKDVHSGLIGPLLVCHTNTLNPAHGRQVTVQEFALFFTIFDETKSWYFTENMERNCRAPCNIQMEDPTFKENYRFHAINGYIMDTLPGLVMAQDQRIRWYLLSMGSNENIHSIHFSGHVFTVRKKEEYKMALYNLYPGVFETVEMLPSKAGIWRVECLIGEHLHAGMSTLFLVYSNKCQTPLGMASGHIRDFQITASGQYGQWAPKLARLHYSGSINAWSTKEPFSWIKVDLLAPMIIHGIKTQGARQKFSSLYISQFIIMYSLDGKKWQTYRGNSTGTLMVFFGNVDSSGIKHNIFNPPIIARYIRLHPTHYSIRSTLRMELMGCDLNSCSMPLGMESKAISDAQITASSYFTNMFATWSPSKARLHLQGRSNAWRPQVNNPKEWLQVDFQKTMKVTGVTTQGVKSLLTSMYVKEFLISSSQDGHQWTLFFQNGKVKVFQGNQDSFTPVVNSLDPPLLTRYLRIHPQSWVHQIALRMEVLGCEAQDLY

[7] = molecular target: human glucagon (Glucagen), freshly dissolved, P01275
[8] = molecular target: native murine serum albumin (nMSA), P07724
Chain of native murine serum albumin (nMSA), P07724 (P07724 25-608): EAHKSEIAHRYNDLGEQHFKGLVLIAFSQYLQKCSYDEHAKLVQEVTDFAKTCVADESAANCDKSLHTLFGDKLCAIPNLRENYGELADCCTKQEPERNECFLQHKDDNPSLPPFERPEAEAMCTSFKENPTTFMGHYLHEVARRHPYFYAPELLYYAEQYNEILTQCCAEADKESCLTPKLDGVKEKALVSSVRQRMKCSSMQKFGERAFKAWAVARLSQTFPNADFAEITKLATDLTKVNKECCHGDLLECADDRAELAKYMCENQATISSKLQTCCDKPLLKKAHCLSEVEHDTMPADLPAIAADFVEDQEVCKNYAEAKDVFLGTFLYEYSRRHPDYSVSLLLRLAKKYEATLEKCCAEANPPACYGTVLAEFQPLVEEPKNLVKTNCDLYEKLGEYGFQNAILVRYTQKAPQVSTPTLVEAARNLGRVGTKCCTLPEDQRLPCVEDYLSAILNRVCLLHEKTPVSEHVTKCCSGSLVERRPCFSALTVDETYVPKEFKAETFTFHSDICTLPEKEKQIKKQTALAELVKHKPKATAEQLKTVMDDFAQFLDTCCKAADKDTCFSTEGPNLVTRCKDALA

[9] = molecular target: T2, recombinant human β2-glycoprotein I (insect cells), P02749
T2 chain: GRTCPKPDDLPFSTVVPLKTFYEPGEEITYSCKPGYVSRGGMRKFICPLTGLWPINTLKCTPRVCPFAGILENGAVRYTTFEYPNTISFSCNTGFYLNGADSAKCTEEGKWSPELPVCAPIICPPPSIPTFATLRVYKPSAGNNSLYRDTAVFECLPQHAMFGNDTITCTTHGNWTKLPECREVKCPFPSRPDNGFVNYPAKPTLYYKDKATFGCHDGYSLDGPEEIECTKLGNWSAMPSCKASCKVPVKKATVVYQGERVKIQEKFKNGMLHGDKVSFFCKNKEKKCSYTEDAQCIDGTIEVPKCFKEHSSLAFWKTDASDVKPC

[10] = molecular target: T3, β2GPI exposed to cardiolipin (CL), P02749
T3 chain: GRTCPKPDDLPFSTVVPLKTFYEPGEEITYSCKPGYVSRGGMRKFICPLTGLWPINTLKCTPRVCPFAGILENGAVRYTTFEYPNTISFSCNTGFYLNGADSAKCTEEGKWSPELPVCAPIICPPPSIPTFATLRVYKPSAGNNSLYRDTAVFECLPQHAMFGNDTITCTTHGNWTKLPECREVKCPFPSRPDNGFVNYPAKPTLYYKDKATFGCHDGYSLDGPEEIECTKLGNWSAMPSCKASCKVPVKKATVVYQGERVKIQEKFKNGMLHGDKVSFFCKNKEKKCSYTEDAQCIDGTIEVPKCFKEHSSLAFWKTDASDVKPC

[11] = molecular target: T4, β2GPI purified from fresh human plasma, P02749
T4 chain: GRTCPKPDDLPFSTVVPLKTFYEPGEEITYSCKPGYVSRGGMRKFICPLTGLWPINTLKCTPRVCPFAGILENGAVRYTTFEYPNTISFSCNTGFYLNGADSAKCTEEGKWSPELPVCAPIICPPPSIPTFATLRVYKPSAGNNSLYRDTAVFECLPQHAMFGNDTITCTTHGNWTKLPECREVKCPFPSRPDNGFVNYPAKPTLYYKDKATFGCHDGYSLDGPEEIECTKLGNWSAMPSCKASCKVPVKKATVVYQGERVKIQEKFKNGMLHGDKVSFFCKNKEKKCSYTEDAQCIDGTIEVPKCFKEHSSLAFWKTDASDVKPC

B1: factor XII (purified human factor XII from plasma) (protein)
chain: IPPWEAPKEHKYKAEEHTVVLTVTGEPCHFPFQYHRQLYHKCTHKGRPGPQPWCATTPNFDQDQRWGYCLEPKKVKDHCSKHSPCQKGGTCVNMPSGPHCLCPQHLTGNHCQKEKCFEPQLLRFFHKNEIWYRTEQAAVARCQCKGPDAHCQRLASQACRTNPCLHGGRCLEVEGHRLCHCPVGYTGAFCDVDTKASCYDGRGLSYRGLARTTLSGAPCQPWASEATYRNVTAEQARNWGLGGHAFCRNPDNDIRPWCFVLNRDRLSWEYCDLAQCQTPTQAAPPTPVSPRLHVPLMPAQPAPPKPQPTTRTPPQSQTPGALPAKREQPPSLTRNGPLSCGQRLRKSLSSMTRVVGGLVALRGAHPYIAALYWGHSFCAGSLIAPCWVLTAAHCLQDRPAPEDLTVVLGQERRNHSCEPCQTLAVRSYRLHEAFSPVSYQHDLALLRLQEDADGSCALLSPYVQPVCLPSGAARPSETTLCQVAGWGHQFEGAEEYASFLQEAQVPFLSLERCSAPDVHGSSILPGMLCAGFLEGGTDACQGDSGGPLVCEDQAAERRLTLQGIISWGSGCGDRNKPGVYTDVAYYLAWIREHTVS
[1]
  factor XII activation (chromogenic kallikrein assay): Only gelatin kept at 37 °C activated factor XII

B2: tissue-type plasminogen activator (tPA) (protein)
chain: SYQVICRDEKTQMIYQQHQSWLRPVLRSNRVEYCWCNSGRAQCHSVPVKSCSEPRCFNGGTCQQALYFSDFVCQCPEGFAGKCCEIDTRATCYEDQGISYRGTWSTAESGAECTNWNSSALAQKPYSGRRPDAIRLGLGNHNYCRNPDRDSKPWCYVFKAGKYSSEFCSTPACSEGNSDCYFGNGSAYRGTHSLTESGASCLPWNSMILIGKVYTAQNPSAQALGLGKHNYCRNPDGDAKPWCHVLKNRRLTWEYCDVPSCSTCGLRQYSQPQFRIKGGLFADIASHPWQAAIFAKHRRSPGERFLCGGILISSCWILSAAHCFQERFPPHHLTVILGRTYRVVPGEEEQKFEVEKYIVHKEFDDDTYDNDIALLQLKSDSSRCAQESSVVRTVCLPPADLQLPDWTECELSGYGKHEALSPFYSERLKEAHVRLYPSSRCTSQHLLNRTVTDNMLCAGDTRSGGPQANLHDACQGDSGGPLVCLNDGRMTLVGIISWGLGCGQKDVPGVYTKVTNYLDWIRDNMRP
[2]
  ability to activate tPA/plasminogen: Alkylation of β2gpi results in amyloid-like properties when the ability to activate tPA/plasminogen is considered
[3]
  tPA-mediated activation of Plg (chromogenic Plg-activation assay): Centrifugation had no effect on the stimulatory effect of Hb-AGE and amyloid γ-globulins on tPA-mediated activation of Plg
[4]
  tPA activating properties (Plg-activation assay): the absence of tPA activating properties in 100 µg ml^-1 endostatin
[5]
  tPA activation: a potent activator of tPA was obtained
[6]
  tPA activation, Max. Activation (%) (tPA-dependent plasminogen activation, % of standardized positive control): 4.22%
[7]
  tPA activating potential: at high glucagon concentration, also native glucagon had some tPA activating potential
  tPA activation, Max. Activation (%) (tPA-dependent plasminogen activation, % of standardized positive control): 11.2%
[8]
  stimulation of tPA activation: also native MSA enhanced ThT fluorescence to some extent, but this was not reflected by stimulation of tPA activation
[9]
  tPA-mediated conversion of Plg to Pls (substrate S-2251): Recombinant β2GPI, but not β2GPI purified from fresh plasma stimulate tPA-mediated conversion of Plg to Pls
[10]
  generation of plasmin from tPA/plasminogen: Generation of plasmin from tPA/plasminogen is accelerated when β2gpi is exposed to cardiolipin (CL-β2gpi)
[11]
  tPA-mediated conversion of Plg to Pls (substrate S-2251): Recombinant β2GPI, but not β2GPI purified from fresh plasma stimulate tPA-mediated conversion of Plg to Pls
